The text below walks through data of US20060286112A1 (published 2006).

The target of experiment [1] is T1, human VLA-1 α1 subunit (CD49a), full-length, on transfected CHO cells (human, UniProt P56199 29-1179). Put plainly: cell-based or functional assay.
The target of experiment [2] is T1, human VLA-1 α1 subunit (CD49a), …. In words: cell-based or functional assay. This is another data set of the same source.
For experiment [3], the target named is T2, human CD49a I domain T204A (human, UniProt P56199 151-364, T204A).
T2 construct: domain: I domain; not shown: myc and His tags
In words: ELISA on secreted mutant I domain. (An ELISA detects its analyte on a solid surface through an enzyme-linked reagent.)

Experiment [4] concerns the target T3, human CD49a I domain I11F (human, UniProt P56199 151-364, I11F).
T3 construct: domain: I domain; not shown: myc and His tags
Put plainly: ELISA on secreted mutant I domain.

The target in experiment [5] is T4, human CD49a I domain K142Q (human, UniProt P56199 151-364, K142Q).
T4 construct: domain: I domain; text prints KI42Q once; not shown: myc and His tags
In words: ELISA on secreted mutant I domain.

Experiment [6] concerns the target T5, human CD49a I domain K88N (human, UniProt P56199 151-364, K88N).
T5 construct: domain: I domain; not shown: myc and His tags
In words: ELISA on secreted mutant I domain.

Experiment [7] addresses T6, human CD49a I domain E66A (human, UniProt P56199 151-364, E66A).
T6 construct: domain: I domain; not shown: myc and His tags
In words: ELISA on secreted mutant I domain.

The target of experiment [8] is T7, human CD49a I domain E48K (human, UniProt P56199 151-364, E48K).
T7 construct: domain: I domain; not shown: myc and His tags
In words: ELISA on secreted mutant I domain.

The target in experiment [9] is T8, human CD49a I domain with residues 91-96 VQRGGR replaced by mouse GRRGGL (human, UniProt P56199 151-364, V91G; Q92R; R96L).
T8 construct: domain: I domain; also called V91G, Q92R, R96L; not shown: myc and His tags
In words: ELISA on secreted mutant I domain.

Experiment [10] concerns the target T9, human VLA-1 (alpha 1/beta 1, CD49a/CD29) on IL-2 stimulated human PBMC / T cells (human, UniProt P56199 29-1179; P05556 21-798). Put plainly: cell-based or functional assay.
The target in experiment [11] is T9, human VLA-1 (alpha 1/beta 1, …). In words: cell-based or functional assay. The source holds these as a separate data set.
Experiment [12] shares this target. Put plainly: cell-based or functional assay. This is another data set of the same source.
Experiment [13] has as its target T10, human CD49a I domain S162H (human, UniProt P56199 151-364, S162H).
T10 construct: domain: I domain; not shown: myc and His tags
In words: ELISA on secreted mutant I domain.

B1: 2.11 (antibody, V domains shown)
VH: QVQLQESGPGLVKPSQTLSLTCTVSGGSINSGGYYWSWIRQHPGKGLEWIGYIFYSGSTYYNPSLKSRVNISVDTSKNQFSLKMSSVTAADTAVYYCARDQDGFDYWGQGTLVTVSS
VL: DIVMTQTPLSLPVTPGEPASISCRSSQSLLDSDDGNTYLDWYLQKPGQSPQLLIYTLSYRASGVPDRFSGSGSGTDFTLKISRVEAEDVGVYYCMQRIEFPWTFGQGTKVEIK
notes: human IgG2 or IgG4
With B1, in experiment [1], the “IC50, adhesion of CHO-VLA-1 cells to collagen IV” value (from here on “IC50, adhesion of CHO-VLA-1 cells”) stood at 0.07 nM. Further, in [2], the “relative inhibition at an optimal concentration, CHO-VLA-1 adhesion to collagen IV” value (“relative inhibition” below) is over 80%. Besides, the binding result is recorded as “binds” in experiment [3]; “binds” in [4]; “no binding” in [5]; “binds” in experiment [6]; “binds” in experiment [7]; “binds” in experiment [8]. Besides, in experiment [9], the binding result is on record as “binds”.

B2: 7.34 (antibody, V domains shown)
VH: EVQLVESGGGLVKPGGSLRLSCAASGFTFSNAWMSWVRQAPGKGLEWVGRIKSKTEGGTTDNVAPVKGRFTISRDDSKNTLYLQMNSLKTEDTAVYYCTITTHYYGMDVWGQGTTVTVSS
VL: DIQMTQSPSSLSASVGDRVTITCRASQTINNYLNWYQQKPGKAPKLLIYAASSLQSGVPSRFSGSGSGTDFTLTISSLQPEDFATYSCQQSNSPPFTFGPGTKVDVK
Regarding B2, in [1], the “IC50, adhesion of CHO-VLA-1 cells” value amounted to 0.19 nM. For the same molecule, in [10], the “% adhesion of IL-2 activated T cells to collagen IV vs no antibody, 10 µg/ml, +PMA” value is 38.3% and the “% adhesion of IL-2 activated T cells to collagen IV vs no antibody, 10 µg/ml, -PMA” value was 41.3%. The “relative inhibition” value in [2] is over 80%. Moreover, in [11], the “% adhesion of T cells to collagen IV vs no antibody, 0.5 nM mAb, 10 ng/ml PMA” value came out at 98.2% and the “% adhesion of T cells to collagen IV vs no antibody, 5 nM mAb, 10 ng/ml PMA” value was determined as 89.7%. In addition, in [12], the “% adhesion of T cells to collagen IV vs no antibody, 0.5 nM mAb, no PMA” value is 89.2% and the “% adhesion of T cells to collagen IV vs no antibody, 5 nM mAb, no PMA” value came to 50.6%.

B3: 6.48 (antibody, V domains shown)
VH: EVQLVQSGAEVKKPGESLRISCKGSGYSVSSYWIGWVRQMPGKGLEWMGIIYPGDSDTRYSPSFQGQVTISADKSISTAFLQWISLKASDTAMYYCARLQGDCSGGSCYGHFDCWGQGTLVTVS
VL: DVVLTQSPLSLPVTLGQPASISCRSSQSLVNSDGDTYLSWFQQWPGQSPRRLFYEVSNWDSGVPDRFSGSGSGTDFTLKISRVEAEDVGVYYCMQGTHWLTFGGGTKVEIK
notes: human IgG2 or IgG4
Regarding B3, the “IC50, adhesion of CHO-VLA-1 cells” value in [1] is 0.12 nM. The “% adhesion of IL-2 activated T cells to collagen IV vs no antibody, 10 µg/ml, +PMA” value in experiment [10] worked out at 17.5%. Also, the “% adhesion of IL-2 activated T cells to collagen IV vs no antibody, 10 µg/ml, -PMA” value in experiment [10] amounted to 41.3%. Also, the “relative inhibition” value in experiment [2] was over 80%. Further, in [11], the “% adhesion of T cells to collagen IV vs no antibody, 0.5 nM mAb, 10 ng/ml PMA” value stood at 94.6%. In addition, the “% adhesion of T cells to collagen IV vs no antibody, 5 nM mAb, 10 ng/ml PMA” value in experiment [11] worked out at 72.5%. Further, the “% adhesion of T cells to collagen IV vs no antibody, 0.5 nM mAb, no PMA” value in experiment [12] is 70%. The “% adhesion of T cells to collagen IV vs no antibody, 5 nM mAb, no PMA” value in experiment [12] is 16.7%. The binding result in experiment [4] was “binds”; in experiment [5] it was “binds”; in [6], “binds”; in [7] it was “binds”; in experiment [8], “binds”; in experiment [9], “no binding”. Moreover, the binding result in [13] is given as “binds”.

B4: 7.22 (antibody, V domains shown)
VH: QVQLQESGPGLGKPSQTLSLTCTVSGGSISSGGHYWSWIRQHPGKGLEWIGYIYYSGSTYYNPSLKSRVTISVDTSKNQFSLKLSSVTAADTAVYYCARDDVRYGGMDVWGQGTTVTVSS
VL: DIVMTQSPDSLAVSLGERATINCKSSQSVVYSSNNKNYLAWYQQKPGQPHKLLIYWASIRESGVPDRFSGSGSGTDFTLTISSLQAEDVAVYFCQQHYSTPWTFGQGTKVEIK
Take B4: the “IC50, adhesion of CHO-VLA-1 cells” value in [1] is 0.41 nM. Also, in experiment [2], the “relative inhibition” value was over 80%.
